Measurements: IntAct's records for PubMed 18469807

Key:
unc5b_human UNC5B [1] = target: unc5b_human UNC5B (UniProt Q8IZJ1)
unc5b_human UNC5B [2] = target: unc5b_human UNC5B (UniProt Q8IZJ1); remark: listed apart in the source

Chain of unc5b_human UNC5B (Q8IZJ1 whole entry): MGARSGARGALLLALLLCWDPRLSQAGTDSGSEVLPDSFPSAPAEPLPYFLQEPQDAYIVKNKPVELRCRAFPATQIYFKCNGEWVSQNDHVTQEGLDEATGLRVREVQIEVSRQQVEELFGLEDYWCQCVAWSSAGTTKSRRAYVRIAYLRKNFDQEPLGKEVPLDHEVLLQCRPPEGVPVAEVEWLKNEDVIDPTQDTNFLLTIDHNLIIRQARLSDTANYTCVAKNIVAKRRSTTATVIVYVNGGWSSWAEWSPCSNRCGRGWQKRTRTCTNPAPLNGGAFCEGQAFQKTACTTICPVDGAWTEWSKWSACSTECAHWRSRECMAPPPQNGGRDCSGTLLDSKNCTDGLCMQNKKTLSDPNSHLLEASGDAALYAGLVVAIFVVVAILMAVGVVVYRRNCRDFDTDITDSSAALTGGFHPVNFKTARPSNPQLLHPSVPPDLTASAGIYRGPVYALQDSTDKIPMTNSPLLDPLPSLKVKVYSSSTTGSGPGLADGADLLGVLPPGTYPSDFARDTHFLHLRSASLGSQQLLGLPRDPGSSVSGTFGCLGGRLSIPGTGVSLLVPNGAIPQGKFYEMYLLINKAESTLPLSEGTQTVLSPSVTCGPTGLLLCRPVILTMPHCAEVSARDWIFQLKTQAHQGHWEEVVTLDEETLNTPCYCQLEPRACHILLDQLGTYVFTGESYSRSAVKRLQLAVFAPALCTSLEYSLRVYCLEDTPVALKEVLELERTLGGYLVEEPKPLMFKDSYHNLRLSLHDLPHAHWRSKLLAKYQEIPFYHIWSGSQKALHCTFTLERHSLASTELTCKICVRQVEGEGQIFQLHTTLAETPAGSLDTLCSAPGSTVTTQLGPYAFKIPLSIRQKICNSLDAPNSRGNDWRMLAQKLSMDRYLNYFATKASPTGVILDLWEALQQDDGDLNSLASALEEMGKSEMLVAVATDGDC

| Substance | effect of a mutation on the interaction (unc5b_human UNC5B [1]) | effect of a mutation on the interaction (unc5b_human UNC5B [2]) |
| --- | --- | --- |
| Arf-GAP with GTPase, ANK repeat and PH domain-containing protein 2 (Rattus norvegicus (Rat)), Q8CGU4 K413A;S414N | disrupting interaction |  |
| Arf-GAP with GTPase, ANK repeat and PH domain-containing protein 2 (Rattus norvegicus (Rat)), Q8CGU4 Y1032F |  | disrupting interaction |
| Arf-GAP with GTPase, ANK repeat and PH domain-containing protein 2 (Rattus norvegicus (Rat)), Q8CGU4 Y1032F;Y1124F |  | disrupting interaction |
| Arf-GAP with GTPase, ANK repeat and PH domain-containing protein 2 (Rattus norvegicus (Rat)), Q8CGU4 Y1124F |  | disrupting interaction |
